This note sets out measurements from article doi:10.1101/215566.

This experiment concerns the target CBD-NpuDnaE_(NΔ16). Kind of experiment: SPR.

In turn, NpuDnaEC16-eGFP (domain or fragment) came in with a dissociation constant (Kd) of 1.6 nM.
